According to patent publication US20040009939A1, “Methods of enhancing immune induction involving MDA-7” (Board of Regent, The University of Texas System, priority 2002, published 2004):
Entries after “also recorded” stand apart in the source; their conditions may differ.

How the values were obtained:
[1] = tested on: HUVEC and HMVEC cells; assay: Endothelial cell differentiation (tube formation) assay; type: cell-based, human
Procedure: Endothelial cell differentiation (tube formation) assays were done using an in vitro angiogenesis assay kit (Chemicon, Temecula, Calif.). Briefly, HUVEC and HMVEC cells were grown to 80% confluency, collected, resuspended in growth medium and plated at a concentration of 2×10^4 cells/well in a 96-well plate coated with matrigel (Chemicon, Temecula, Calif.). To the wells, varying concentrations of MDA-7 protein were added and incubated for 24 h at 37° C. Wells that were not treated with MDA-7 protein served as a negative control. The ability of sMDA-7 to inhibit tube formation was determined and quantitated by counting the number of tubes under bright field microscopy. All samples were tested in duplicate. For comparative studies using MDA-7 and endostatin (Calbiochem), cells were plated as described above and exposed to varying concentration of the proteins. […] All other experimental procedures were the same as described above.

[2] = tested on: HUVEC cells; assay: Endothelial cell migration assay; type: cell-based, human; details: VEGF 100 ng/ml
Procedure: Migration assays were performed using HUVEC cells. Cells were starved overnight in basal medium containing 0.5% fetal bovine serum (FBS), collected and re-suspended in the same medium and seeded at a concentration of 1×10^5 cells/well in the upper surface of a 24-well transwell insert with a filter size of 8 μm (Millipore, Cambridge, Mass.). The insert was placed in a 6-well plate that contained medium plus VEGF (100 ng/ml) or VEGF plus MDA-7 (10 ng/ml). The plates containing the transwell were incubated at 37° C. overnight to allow migration. The following day, the wells were disassembled, membranes fixed in crystal violet and the number of cells that had migrated to the lower wells were counted under high power magnification (×40).

[3] = tested on: HUVEC; assay: IP-10 and IFN-γ production by ELISA; type: cell-based, human; details: sMDA-7 treated HUVEC supernatant
Procedure: HUVEC was seeded in six-well plates (1×10^5/well) and treated with sMDA-7 (10 ng/ml). Cell culture supernatant was collected at 6 h, 24 h, and 48 h after treatment, centrifuged at 1200 rpm, and analyzed for IP-10 and IFN-γ protein production using commercially available ELISA kits. Assays were performed as recommended by the manufacturer (R&D Systems, Minneapolis, Minn.). Cells treated with recombinant IFN-γ served as positive controls for IP-10 while cells treated with Ad-mda7 (3000 vp/cell) served as positive control for IFN-γ. Untreated cells served as negative controls in these experiments. Samples were analyzed in quadruplicate and data represented as the average value for each concentration of sMDA-7 tested.

[4] = tested on: STAT-3; assay: pSTAT-3 Western blot and immunofluorescence; type: cell-based, human
Procedure: To determine the regulation of pSTAT-3 expression following the addition of sMDA-7, Western blot analysis was performed as described previously (Wang et al., 2002). Briefly, cells were harvested by trypsinization and resuspended in lysis buffer (62.5 mM Tris-HCl, 2% SDS, 10% glycerol, 4 M urea). Protein samples (50 μg) were each diluted into a 20 μl solution of lysis buffer and 5% 2-mercaptoethanol (Bio-Rad Laboratories, Hercules, Calif.) and heated in a water bath at 95° C. for 5 min. Protein extracts were then separated by 10% SDS-PAGE in a vertical-slab gel electrophoresis cell (Bio-Rad). The separated proteins were transferred from gel to nitrocellulose membrane (Hybond-ECL; Amersham Pharmacia Biotech, Buckinghamshire, England) and then blocked in a blocking solution (5% dry milk and 0.3% Tween 20 in PBS) for 1 hour. Membranes were incubated with the primary antibodies against pSTAT-3 (1:1000), and β-actin (1:10000). The membranes were then incubated with horseradish peroxidase-labeled secondary antibodies (Amersham). Finally, the proteins were visualized on enhanced chemiluminescence film (Hyperfilm, Amersham) by application of Amersham's Enhanced Chemiluminescence Western blotting detection system.
Activation of STAT-3 was also determined by immunofluorescence assay. HUVEC seeded in two-well chamber slides (1×10^4 cells/well) was treated with sMDA-7 (10 ng/ml) for 4 h, washed in PBS, fixed in cold acetic acid and stained for phosphorylated STAT-3 (pSTAT-3) using rabbit anti-human pSTAT-3 antibody (1:1000, Cell Signaling Technology, Beverly, Mass.) and rhodamine labeled anti-rabbit secondary antibody (1:5000; Molecular Probes, Eugene, Oreg.). Slides were mounted using anti-fade mounting reagent (Vector Laboratories). Pictures were taken 1-2 h after staining using a fluorescence microscope.

[5] = tested on: bFGF-induced angiogenesis; assay: In vivo angiogenesis Matrigel assay; set-up: species or system athymic nude mice
Procedure: To determine the anti-angiogenic activity of sMDA-7, an in vivo angiogenesis assay was performed. Briefly, sMDA-7 and bFGF were mixed with 500 μl of matrigel (Beckton and Dickenson) on ice and injected subcutaneously into athymic nude mice. Animals receiving matrigel containing only bFGF (60 ng) served as a positive control while animals receiving matrigel containing no growth factor served as a negative control. Each group consisted of 5 animals. Experiments were terminated on day 10 and the matrigel was harvested, photographed and subjected to hemoglobin analysis as described previously (Caudel et al., 2002).

[6] = Serum sMDA-7 by ELISA; type: in vivo, nude mice; details: animals implanted with 293 cells producing MDA-7
From the text: Mice were inoculated subcutaneously with A549 tumor cells in the lower right flank as described in Example 19. When the tumors had reached a size of 50 mm^3, 293 cells producing sMDA-7 (293-mda-7) or parental 293 cells (control) were encapsulated in matrigel and implanted subcutaneously at a site distant (upper right flank) from the tumor and the tumor growth was monitored. […] In comparison to the control, the growth of the tumors was suppressed by 50% after implantation of the encapsulated 293 cells producing MDA-7 protein. To confirm that the inhibitory effect was due to sMDA-7, serum samples from animals were tested for MDA-7 protein by Western blot analysis and ELISA. […] However, faint bands were also observed in the control that may be due to some cross-reactivity with serum proteins. The serum levels of sMDA-7 detected by ELISA was approximately 50 ng/ml.

[7] = tested on: tumor cells; assay: Tumor cell death by secreted MDA-7 supernatant and bystander mixing; type: cell-based, human; details: supernatant from 293 cells applied to tumor cell cultures
Procedure: This hypothesis was further tested by adding secreted MDA-7 to tumor cells and monitoring cell death. […] When culture supernatants were treated to minimize Ad-mda7 contamination, negligible cell death was induced by MDA-7 containing supernatants. When supernatant from 293 cells was applied to tumor cell cultures, only low levels of cell death were seen (approximately 10-15% above background levels) confirming that the secreted MDA-7, at least at the concentrations released by these cells, was not sufficient to elicit substantial cell death in tumor cells.
In that study, H460 cells were transduced with Ad-mda7 and immunostained with anti-MDA-7 antibody in conjunction with Annexin V staining. By confocal analysis, it was observed that some cells were Annexin V positive but were negative for MDA-7 expression. The frequency of Annexin V positive/MDA-7 negative cells was low and […] in multiple cells lines. Thus, to further evaluate the contribution of secreted MDA-7 in inducing apoptosis in neighboring cells, a series of bystander experiments were performed. Ad-mda7 transduced cells were mixed with native cells that had been previously labled with Ad-GFP and the cultures were scored for apoptosis in the GFP positive cells.

[8] = tested on: human PBMC; details: cited from earlier work

B1: sMDA-7: secreted, glycosylated MDA-7 protein purified from supernatant of 293-mda-7 cells (protein)
chain: AQGQEFHFGPCQVKGVVPQKLWEAFWAVKDTMQAQDNITSARLLQQEVLQNVSDAESCYLVHTLLEFYLKTVFKNYHNRTVEVRTLKSFSTLANNFVLIVSQLQPSQENEMFSIRDSAHRRFLLFRRAFKQLDVEAALTKALGEVDILLTWMQKFYKL
Q: For B1, which “concentration giving complete abrogation of tubular formation” value ([1]; HUVEC and HMVEC) is on record?
A: 10 ng/mL

Q: And the “inhibition of endothelial tube formation” value ([1]; HUVEC and HMVEC, 24 h)?
A: significant inhibition of endothelial tube formation

Q: And the “tubular formation in the presence of IL-10R neutralizing antibody” value ([1]; HUVEC, antibody 5 ng, sMDA-7 5 ng)?
A: able to inhibit tubular formation

Q: What about the tube formation ([1]; HUVEC, sMDA-7 5 ng) of the same molecule?
A: complete inhibition of tube formation

Q: What about the “amount giving complete inhibition of migration” value ([2]; MDA-7) of the same molecule?
A: 50 ng

Q: What about the “endothelial cell migration induced by VEGF” value ([2]; sMDA-7 10 ng/ml) of the same molecule?
A: blocked endothelial cell migration

Q: What about the IFN-γ induction [3] of the same molecule?
A: IP-10 but not IFN-γ was induced

Q: What about the “amount of IP-10 produced” value ([3]; various time points) of the same molecule?
A: 15 to 32 pg/mL

Q: And the pSTAT-3 protein expression ([4]; HUVEC and HMVEC, Western blot)?
A: significant increase in the phosphorylated form of STAT-3 (pSTAT-3) protein expression as early as 4 h

Q: And the “nuclear localization of pSTAT-3” value ([4]; HUVEC, immunofluorescence)?
A: increased nuclear localization of pSTAT-3 protein

Q: And the “time of maximal pSTAT-3 expression” value ([4]; after treatment)?
A: 24 h

Q: What about the “hemoglobin content in the matrigel” value ([5]; day 10, vs no bFGF, only bFGF, or endostatin) of the same molecule?
A: very significant (p=0.0001) inhibitory effect; also recorded: significant reduction in hemoglobin content

Q: And the “bFGF-induced angiogenesis in matrigel” value ([5]; sMDA-7 10 ng, 10 days after implantation)?
A: inhibition of bFGF-induced angiogenesis

Q: And the “serum levels of sMDA-7 detected by ELISA” value [6]?
A: approximately 50 ng/ml

Q: And the “cell death above background levels” value [7]?
A: 10-15%

Q: And the cytokine induction [8]?
A: causes the induction of IFN-γ, IL-6 and TNF-α
